Experimental data reported in PMC9125324, “MdJa2 Participates in the Brassinosteroid Signaling Pathway to Regulate the Synthesis of Anthocyanin and Proanthocyanidin in Red-Fleshed Apple”.
Positions count from the first letter of the chain named.

B1: ANS promoter probe (dsDNA)
DNA 1: GCAATTAAGTTTGTAAACCAATAATTAACTTAATTTTGAT
DNA 2: ATCAAAATTAAGTTAATTATTGGTTTACAAACTTAATTGC
B2: MYB9 promoter probe (dsDNA)
DNA 1: TAAATAGTAATAATATCATTTTTGTACATTCAGATAA
DNA 2: TTATCTGAATGTACAAAAATGATATTATTACTATTTA
B3: MYB9-mutant probe (dsDNA)
DNA 1: B2 DNA 1 with T19C, T20C
DNA 2: B2 DNA 2 with A18G, A19G
B4: MYB12-mutant probe (printed NYB12-mutant) (dsDNA)
DNA 1: AAATTCAGGAACCATTGCTACAACCAAGCATAACACAGT
DNA 2: ACTGTGTTATGCTTGGTTGTAGCAATGGTTCCTGAATTT
B5: MYB12 promoter probe (dsDNA)
DNA 1: B4 DNA 1 with C24T, C25T
DNA 2: B4 DNA 2 with G15A, G16A
B6: ANS-mutant probe (dsDNA)
DNA 1: B1 DNA 1 with T5C, T6C
DNA 2: B1 DNA 2 with A35G, A36G

Key:
MdJa2-His [1] = target: T1, MdJa2-His (Malus domestica? (red-fleshed apple), UniProt Q208U7 1-224); experiment: EMSA; EMSA (LightShift kit): 2.5% glycerol, 5 mM MgCl2, 10 mM EDTA, 50 mM KCl; room temperature, 30 min; pH not stated; details: protein: recombinant, tags: His (pET32a), chain copies: 2, blunt
T1 sequence (Q208U7 entry or part of it): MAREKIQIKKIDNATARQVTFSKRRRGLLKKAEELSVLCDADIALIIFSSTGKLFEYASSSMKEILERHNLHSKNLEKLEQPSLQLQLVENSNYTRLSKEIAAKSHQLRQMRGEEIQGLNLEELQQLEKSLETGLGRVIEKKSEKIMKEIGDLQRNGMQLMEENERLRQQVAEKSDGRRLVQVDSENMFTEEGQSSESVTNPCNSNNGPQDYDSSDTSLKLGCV

MdJa2-His [2] = target: T1, MdJa2-His; experiment: competition; 50-200x excess vs labeled N3; EMSA (LightShift kit): 2.5% glycerol, 5 mM MgCl2, 10 mM EDTA, 50 mM KCl; room temperature, 30 min; pH not stated; details: protein: recombinant; tags: His (pET32a); chain copies: 2; blunt
MdJa2-His [3] = target: T1, MdJa2-His; experiment: competition; 50-200x excess vs labeled N5; EMSA (LightShift kit): 2.5% glycerol, 5 mM MgCl2, 10 mM EDTA, 50 mM KCl; room temperature, 30 min; pH not stated; details: protein: recombinant; tags: His (pET32a); chain copies: 2; blunt

Row | Binder | binding result (MdJa2-His [1]; label: biotin (labeled probe)) | also measured
1 | B1 | binds | –
2 | B2 | binds | –
3 | B3 | – | binding result (MdJa2-His [2]): no binding
4 | B4 | – | binding result (MdJa2-His [3]): no binding
5 | B5 | binds | –
6 | B6 | – | binding result (MdJa2-His [1]): no binding
